Patent publication US20200109188A1 (AstraZeneca / MedImmune, published 2020)

B1: Antibody 8 (antibody, V domains shown)
VH: QVQLQQSGPGLVKPSQTLSLTCVISGDTVSSNRATWNWMRQSPLRGLEWLGRTYYRSKWYNDYAVSVKSRVVINPDTSKNQVSLQLNTVTPDDSGVYFCARGGHITVFGVNIDAFDIWGLGTKVTVSS
VL: DIQMTQSPSSLSASVGDRVTISCRASQRLNSYLHWYQQTPGQAPKLLIYATSTLQSGVSPRFSGSGSGTDFTLTISSLQPEDVATYYCQLSRTFGHGTKVEIK
B2: Antibody 10 (antibody, V domains shown)
VH: QVQLQQSGPGLVKPSQTLSLTCAISGDSVSSNSATWNWIRQSPSRGLEWLGRTYYRSKWYNDYADFLKRRITINPDTSNNEVSLRLTSVTPDDTALYYCARGGHITVFGVNIDAFDVWGQGTMVTVSS
VL: DIQMTQSPSSLSASVGDRITISCRTSQSLRSYLHWYQQKPGKAPKLLIYASSTLQSGVPSRFSGSGSGTDFTLTISNLQPEDFATYYCQLSRTFGQGTKVEIK
B3: Antibody 5 (antibody, V domains shown)
VH: QVQLQQSGPGLVKPSQTLSLTCAISGDRVSSNSAVWNWIRQSPSRGLEWLGRTYYRSKWYYDYAESVKSRIVIDPDTSKNQVSLQLNSVTPEDSAIYYCARGGHITVFGLNIDAYDIWGQGAMVTVSS
VL: DIQMTQSPSSLSASVGDRVTISCRAQSLSSYLHWYQQKPGQPPKLLIYAATTLQSGVPSRFSGSGSGTDFTLTISTFQAEDVATYYCQQSRTFGQGTKVEIK
B4: Antibody 6 (antibody, V domains shown)
VH: QVQLQQSGPGLVKPSQTLSLTCAISGDRVSSNSAVWNWIRQSPSRGLEWLGRTYYRSKWYYDYAESVKSRIVIDPDTSKNQVSLQLNSVTPEDSAIYYCARGGHITEFGLNIDAYDIWGQGAMVTVSS
VL: DIQMTQSPSSLSASVGDRVTISCRAQSLSSYLHWYQQKPGQPPKLLIYAATTLQSGVPSRFSGSGSGTDFTLTISTFQAEDVATYYCQQSRTFGQGTKVEIK

Assays:
Test in all cases: cell-based or functional assay
[1] = molecular target: HA of ca A/swine/Missouri/06 (H2N3) virus (influenza A virus)
[2] = molecular target: HA of ca A/Sydney/5/97 (H3N2) virus (influenza A virus)
[3] = molecular target: HA of A/Wyoming/03/03 (H3N2) virus (influenza A virus)
[4] = molecular target: HA of ca A/Hong Kong/213/03 (H5N1) virus (influenza A virus)
[5] = molecular target: HA of ca A/Panama/2007/99 (H3N2) virus (influenza A virus)
[6] = molecular target: HA of ca A/Vietnam/1203/04 (H5N1) virus (influenza A virus)
[7] = molecular target: HA of ca A/chicken/Hong Kong/G9/97 (H9N2) virus (influenza A virus)
[8] = molecular target: HA of H3-LA87 (A/Los Angeles/7/09 (H3N2)) virus (influenza A virus)
[9] = molecular target: HA of A/Wisconsin/67/05 (H3N2) virus (influenza A virus)
[10] = molecular target: HA of A/New Jersey/8/76 (H1N1) virus (influenza A virus)
[11] = molecular target: HA of ca A/Netherlands/219/03 (H7N7) virus (influenza A virus)
[12] = molecular target: HA of A/Victoria/3/75 (H3N2) virus (influenza A virus, UniProt P03435 17-567)
Chain of HA of A/Victoria/3/75 (H3N2) virus (P03435 17-567 limits assumed): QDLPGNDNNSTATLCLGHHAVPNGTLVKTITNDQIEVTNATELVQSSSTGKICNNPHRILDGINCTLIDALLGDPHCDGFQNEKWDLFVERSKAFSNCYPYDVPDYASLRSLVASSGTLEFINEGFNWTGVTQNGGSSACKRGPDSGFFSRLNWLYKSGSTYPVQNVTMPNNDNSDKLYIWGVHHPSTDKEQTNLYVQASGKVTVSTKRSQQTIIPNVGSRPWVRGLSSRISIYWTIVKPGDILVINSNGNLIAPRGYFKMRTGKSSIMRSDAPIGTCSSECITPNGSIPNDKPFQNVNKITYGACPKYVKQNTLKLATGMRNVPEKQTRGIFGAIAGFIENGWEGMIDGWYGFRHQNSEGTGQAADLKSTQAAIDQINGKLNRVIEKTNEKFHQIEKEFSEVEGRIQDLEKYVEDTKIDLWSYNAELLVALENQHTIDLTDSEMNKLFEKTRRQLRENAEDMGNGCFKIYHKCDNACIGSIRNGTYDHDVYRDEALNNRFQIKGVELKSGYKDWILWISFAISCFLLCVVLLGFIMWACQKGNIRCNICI

[13] = molecular target: HA of ca A/Texas/36/91 (H1N1) virus (influenza A virus)
[14] = molecular target: HA of A/Hong Kong/8/68 (H3N2) virus (influenza A virus)
[15] = molecular target: HA of ca A/teal/Hong Kong/W312/97 (H6N1) virus (influenza A virus)
[16] = molecular target: HA of ca A/Beijing/262/95 (H1N1) virus (influenza A virus)
[17] = molecular target: HA of ca A/Perth/16/09 (H3N2) virus (influenza A virus)
[18] = molecular target: HA of ca A/Brit. Columbia/CN-6/04 (H7N3-LP) virus (influenza A virus)
[19] = molecular target: HA of A/Fort Monmouth/1/47 (H1N1) virus (influenza A virus)
[20] = molecular target: HA of ca A/New Caledonia/20/99 (H1N1) virus (influenza A virus)
[21] = molecular target: HA of A/Kawasaki/9/86 (H1N1) virus (influenza A virus)

| Binder | Neutralization IC50, H2-MO06 [1] [µg/mL] | Neutralization IC50, H3-Syd97 [2] [µg/mL] | Neutralization IC50, H3-Wy03 [3] [µg/mL] | Neutralization IC50, H5-HK03 [4] [µg/mL] | Neutralization IC50, H3-Pa99 [5] [µg/mL] | Neutralization IC50, H5-VM04 [6] [µg/mL] | Neutralization IC50, H9-HK97 [7] [µg/mL] | Neutralization IC50, H3-LA87 [8] [µg/mL] | Neutralization IC50, H3-Wl05 [9] [µg/mL] | Neutralization IC50, H1-NJ76 [10] [µg/mL] | Neutralization IC50, H7-NLD03 [11] [µg/mL] | Neutralization IC50, H3-Vic75 [12] [µg/mL] | Neutralization IC50, H1-TX91 [13] [µg/mL] | Neutralization IC50, H3-HK68 [14] [µg/mL] | Neutralization IC50, H6-HK97 [15] [µg/mL] | Neutralization IC50, H1-BJ95 [16] [µg/mL] | Neutralization IC50, H3-Perth09 [17] [µg/mL] | Neutralization IC50, H7-BC04 [18] [µg/mL] | Neutralization IC50, H1-FM47 [19] [µg/mL] | Neutralization IC50, H1-Ncal99 [20] [µg/mL] | further results |
| --- | --- | --- | --- | --- | --- | --- | --- | --- | --- | --- | --- | --- | --- | --- | --- | --- | --- | --- | --- | --- | --- |
| B1 | 2.62 | > 50 | > 50 | 1.82 | > 50 | 3.9 | 26.4 | > 50 | > 50 | 2.26 | 12.8 | 3.83 | 0.7 | 2.82 | 2.97 | 10.6 | > 50 | 14.7 | 1.37 | 2.06 | Neutralization IC50, H1-Kaw86 [21]: 2.11 µg/mL |
| B2 | 1.04 | 9.29 | 1.52 | 1.6 | 18.7 | 2.21 | 1.76 | 4.59 | 4.46 | 0.15 | 3.8 | 0.91 | 0.48 | 0.85 | 1.05 | 4.46 | 2.56 | 3.59 | 1.11 | 1.26 | Neutralization IC50, H1-Kaw86 [21]: 1.62 µg/mL |
| B3 | 2.38 | 3.03 | 0.77 | 1.18 | 16.7 | 2.6 | 2.43 | 3.54 | 2.83 | 1.64 | 4.14 | 0.57 | 0.76 | 0.39 | 2.27 | 5.06 | 2.22 | 5.35 | 0.86 | 0.85 | Neutralization IC50, H1-Kaw86 [21]: 1.01 µg/mL |
| B4 | 2.9 | 6.54 | 4.7 | 10.4 | 25.8 | 8.87 | 16.5 | 12.6 | 6.76 | 2.6 | > 50 | 1.09 | 2.2 | 2.04 | 3.23 | 20.9 | 5.03 | > 50 | 3.04 | 3 | Neutralization IC50, H1-Kaw86 [21]: 3.51 µg/mL |
